Experimental data as given in patent publication US20240075093A1 (VIRGINIA TECH INTELLECTUAL PROPERTIES, published 2024).

Target: p110β (isolated PI3K protein subunit, cell-free kinase ELISA) (UniProt P42338 1-1070, limits assumed)
Assay: cell-based or functional assay

Chain of p110β (isolated PI3K protein subunit, cell-free kinase ELISA) (P42338 whole entry): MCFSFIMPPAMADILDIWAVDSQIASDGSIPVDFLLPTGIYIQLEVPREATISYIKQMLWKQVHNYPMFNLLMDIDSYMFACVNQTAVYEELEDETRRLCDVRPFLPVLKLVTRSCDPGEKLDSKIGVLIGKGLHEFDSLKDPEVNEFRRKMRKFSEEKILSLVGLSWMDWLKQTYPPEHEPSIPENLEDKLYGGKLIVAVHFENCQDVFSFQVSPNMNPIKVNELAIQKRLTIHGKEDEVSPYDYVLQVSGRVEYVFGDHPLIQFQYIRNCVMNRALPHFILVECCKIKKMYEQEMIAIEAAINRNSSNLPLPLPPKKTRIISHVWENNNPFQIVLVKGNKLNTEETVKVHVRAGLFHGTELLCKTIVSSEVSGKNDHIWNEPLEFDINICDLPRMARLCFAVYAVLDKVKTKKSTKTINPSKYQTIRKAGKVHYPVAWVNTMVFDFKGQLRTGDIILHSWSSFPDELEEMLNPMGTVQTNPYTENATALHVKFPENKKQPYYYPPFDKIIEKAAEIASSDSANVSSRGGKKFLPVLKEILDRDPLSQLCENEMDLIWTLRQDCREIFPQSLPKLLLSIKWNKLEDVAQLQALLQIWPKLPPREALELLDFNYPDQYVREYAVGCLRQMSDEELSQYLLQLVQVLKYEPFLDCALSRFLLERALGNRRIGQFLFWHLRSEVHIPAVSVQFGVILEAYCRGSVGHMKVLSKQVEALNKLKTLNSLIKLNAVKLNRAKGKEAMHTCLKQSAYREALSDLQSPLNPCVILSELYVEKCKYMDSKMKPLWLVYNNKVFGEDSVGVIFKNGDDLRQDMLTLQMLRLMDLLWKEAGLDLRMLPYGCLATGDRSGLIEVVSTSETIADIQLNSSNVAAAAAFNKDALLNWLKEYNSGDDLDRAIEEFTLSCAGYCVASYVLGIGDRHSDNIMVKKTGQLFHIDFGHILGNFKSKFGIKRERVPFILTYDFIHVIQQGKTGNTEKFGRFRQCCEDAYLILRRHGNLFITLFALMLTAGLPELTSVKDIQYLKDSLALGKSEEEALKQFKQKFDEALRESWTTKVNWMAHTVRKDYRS

activity of the p110b catalytic subunit, measured via ELISA; Half Maximal Inhibitory Concentration (IC50): 105 nM
B1: Ante-Selectide-18 (peptide)
peptide: RQPKIWFPNRRKPWKKTKKSTKTINPSKYQTIRK
